B1: Azoarcus group I ribozyme (parent)
chain: GUGCCUUGCGCCGGGAAACCACGCAAGGGAUGGUGUCAAAUUCGGCGAAACCUAAGCGCCCGCCCGGGCGUAUGGCAACGCCGAGCCAAGCUUCGGCGCCUGCGCCGAUGAAGGUGUAGAGACUAGACGGCACCCACCUAAGGCAAACGCUAUGGUGAAGGCAUAGUCCAGGGAGUGGCGAAAGUCACACAAACCGG

Variants of B1 are the subject of this data set. Description: reverse-splicing fitness (ratio to wild type); higher = more active; in vitro selection; Mg2+ level not given. Summed up: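 An in vitro group I ribozyme library with randomized positions was T7-transcribed and gel-purified. In triplicate, 10 pmol RNA in EPPS pH 7.5 was reacted with 50 pmoles of a 30-nt RNA substrate for 1 h at 37 °C across several added MgCl2 levels (1–48 mM), then stopped with EDTA. Products were reverse transcribed from a substrate-complementary primer, PCR-amplified and sequenced (HiSeq 4000). Fitness is a variant's read proportion after selection over that before, normalised to wild type.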
As to A111G A120C A145U C169G U176A, the reverse-splicing fitness was found to be 0.00894. As for A111G A120C A145U C169G U176G, the reverse-splicing fitness came out at 0.0045. Regarding A111G A120C A145U C150U C169U U176A, the reverse-splicing fitness came to 0.0423. For A111G A120C A145U C150U C169U U176G, the reverse-splicing fitness is 0.00606. Under A111G A120C A145U C150U C169U U176C stands 0.051. Under A111G A120C C150U C169A U176G stands 0.00384; under A111G A120C C150U C169A U176A, 0.0182. Take A111G A120C C150U C169A U176C: the reverse-splicing fitness amounted to 0.012.

In the case of A111G A120G A145G C150G U176A, the reverse-splicing fitness was 0.0132.

With A111G A120G A145G C150G U176G, the reverse-splicing fitness worked out at 0.00619.

For the variant A111G A120G A145G C150G U176C, the reverse-splicing fitness worked out at 0.0227. With A111G A120C C150G C169A U176C, the reverse-splicing fitness was found to be 0.00784. With A111G A120C C150G C169A U176A, the reverse-splicing fitness was determined as 0.00551. Consider A111G A120C C150G C169A U176G, for which the reverse-splicing fitness stood at 0.00466. Under A111G A120C C169U U176C stands 0.0857; under A111G A120C C169U U176G, 0.00675; under A111G A120C C169U U176A, 0.0684. Then A111G A120C C150G C169U U176A, with 0.00767. Then A111G A120C C150G C169U U176G, with 0.0044. Turning to A111G A120C C150G C169U U176C, the reverse-splicing fitness was determined as 0.0152. Turning to A111G A120C A145G C150U U176C, the reverse-splicing fitness worked out at 0.316. Then A111G A120C A145G C150U U176A, with 0.287. Then A111G A120C A145G C150U U176G, with 0.0682; and A111G A120G A145U C150U U176G, with 0.00788; and A111G A120G A145U C150U U176A, with 0.0608. In the case of A111G A120G A145U C150U U176C, the reverse-splicing fitness came to 0.0782. Then A111G A120G A145U C150G C169A, with 0.0193; and A111G A120G A145U C150G C169G, with 0.0297.

For the variant A111G A120G A145U C150G C169U, the reverse-splicing fitness turned out to be 0.0301. On to A111G A120G A145G C150G C169A, for which the reverse-splicing fitness is 0.0213. Under A111G A120G A145G C150G C169U stands 0.0343; under A111G A120G A145G C150G C169G, 0.0306; under A111G A120C C150U C169G, 0.0131. Under A111G A120C C150U C169U stands 0.161; under A111G A120C C150U C169A, 0.012; under A111G A120C A145U U176G, 0.172. Take A111G A120C A145U U176A: the reverse-splicing fitness was found to be 0.482. Under A111G A120C A145U U176C stands 0.45; under A111G A120C A145U C150U U176G, 0.0965. Then A111G A120C A145U C150U U176A, with 0.365; and A111G A120C A145U C150U U176C, with 0.357. Then A111G A120C C169G U176G, with 0.00351; and A111G A120C C169G U176C, with 0.0183; and A111G A120C C169G U176A, with 0.0158. Take A111G A120C A145U C150A: the reverse-splicing fitness was 0.111. With A111G A120C A145U C150U, the reverse-splicing fitness was determined as 0.579. Then A111G A120C A145U C150G, with 0.12; and A111G A120C A145G C169G U176C, with 0.0194.

In the case of A111G A120C A145G C169G U176A, the reverse-splicing fitness was found to be 0.019. Consider A111G A120C A145G C169G U176G, for which the reverse-splicing fitness amounted to 0.00387. With A111G A120C A145G C169A U176C, the reverse-splicing fitness was 0.0197. With A111G A120C A145G C169A U176A, the reverse-splicing fitness was 0.0173.

In the case of A111G A120C A145G C169A U176G, the reverse-splicing fitness was determined as 0.00366. Consider A111G A120C A145U C150U C169G, for which the reverse-splicing fitness amounted to 0.0111. Turning to A111G A120C A145U C150U C169A, the reverse-splicing fitness turned out to be 0.013.

In the case of A111G A120C A145U C150U C169U, the reverse-splicing fitness was found to be 0.173. Then A111G A120G A145C C150G C169G U176C, with 0.00653; and A111G A120G A145C C150G C169G U176G, with 0.00389. Then A111G A120G A145C C150G C169G U176A, with 0.0101; and A111G A120C A145U C169G, with 0.0128. Under A111G A120C A145U C169A stands 0.0133; under A111G A120C A145U C169U, 0.262. A111G A120C C150A C169U U176C: the reverse-splicing fitness stood at 0.022. Under A111G A120C C150A C169U U176G stands 0.00616; under A111G A120C C150A C169U U176A, 0.0231. Turning to A111G A120C A145G C150U C169G U176G, the reverse-splicing fitness came out at 0.00469. Then A111G A120C A145U C150A C169U U176G, with 0.00505; and A111G A120C A145U C150A C169U U176A, with 0.0204; and A111G A120C A145U C150A C169U U176C, with 0.0177.

Turning to A111G A120C C150U C169G U176A, the reverse-splicing fitness came out at 0.0207. Under A111G A120C C150U C169G U176C stands 0.0169; under A111G A120C C150U C169G U176G, 0.00459; under A111G A120C A145U C150A U176A, 0.0685. Then A111G A120C A145U C150A U176G, with 0.024; and A111G A120C A145U C150A U176C, with 0.0741. Then A111G A120G A145G C150U C169A U176A, with 0.0303; and A111G A120G A145G C150U C169A U176C, with 0.0553; and A111G A120G A145G C150U C169A U176G, with 0.00612. Take A111G A120C A145U C150G C169G U176G: the reverse-splicing fitness came to 0.00416. Consider A111G A120C A145U C150G C169G U176A, for which the reverse-splicing fitness was 0.00655. Take A111G A120C A145U C150G C169G U176C: the reverse-splicing fitness stood at 0.00451. Under A111G A120G A145C U176C stands 0.104. For A111G A120G A145C U176A, the reverse-splicing fitness turned out to be 0.0723. Consider A111G A120G A145C U176G, for which the reverse-splicing fitness was 0.00892.
